# In paper PMC8458682 (Slas Discovery, 2022):
# Assays:
# SARS-CoV-2 M^pro [1] = target: T1, SARS-CoV-2 M^pro (Severe acute respiratory syndrome coronavirus 2, UniProt P0DTD1); format: biochemical
# SARS-CoV-2 M^pro [2] = target: T1, SARS-CoV-2 M^pro; test: biochemical; settings: read-out: Screening: Inhibition @ 50 µM
# [3] = test system: CC(C)C[C@H](NC(=O)[C@@H](NC(=O)[C@H](C)NC(=O)[C@H](CO)NC(=O)c1ccccc1N)C(C)C)C(=O)N[C@@H](CCC(N)=O)C(=O)N[C@@H](CO)C(=O)NCC(=O)N[C@@H](Cc1ccc(O)c([N+](=O)[O-])c1)C(=O)N[C@@H](CCCNC(=N)N)C(=O)O; test: purified protein, by the assay type; settings: pH 7.4
# [4] = test system: CC(C)C[C@H](NC(=O)[C@@H](NC(=O)[C@@H](NC(=O)[C@@H](NC(=O)c1ccccc1N)C(C)C)C(C)C)[C@@H](C)O)C(=O)N[C@@H](CCC(N)=O)C(=O)N[C@@H](CO)C(=O)NCC(=O)N[C@@H](CNc1ccc([N+](=O)[O-])cc1[N+](=O)[O-])C(=O)N[C@@H](CCCNC(=N)N)C(=O)O; test: purified protein, by the assay type; settings: pH 7.4
# [5] = test system: CC(C)C[C@H](NC(=O)[C@@H](NC(=O)[C@@H](NC(=O)[C@@H](NC(=O)c1ccccc1N)C(C)C)C(C)C)[C@@H](C)O)C(=O)N[C@@H](CCC(N)=O)C(=O)N[C@@H](CO)C(=O)NCC(=O)N[C@@H](Cc1ccc(O)c([N+](=O)[O-])c1)C(=O)N[C@@H](CCCNC(=N)N)C(=O)O; test: purified protein, by the assay type; settings: pH 7.4
Compound,Hill slope (SARS-CoV-2 M^pro [1]),inhibition at 50 µM (SARS-CoV-2 M^pro [2]) [%],Km [3] [µM],Vmax [3] [µM/min],kcat [3] [s⁻¹],kcat/Km [3] [M⁻¹ s⁻¹],Km [4] [µM],Vmax [4] [µM/min],kcat [4] [s⁻¹],kcat/Km [4] [M⁻¹ s⁻¹],Km [5] [µM],Vmax [5] [µM/min],kcat [5] [s⁻¹],kcat/Km [5] [M⁻¹ s⁻¹]
CC(C)(C)NC(=O)N[C@H](C(=O)N1C[C@H]2[C@@H]([C@H]1C(=O)NC(CC1CCC1)C(=O)C(N)=O)C2(C)C)C(C)(C)C (some centres unmarked) [Boceprevir],0.85 ± 0.05,55.5 ± 4.7,,,,,,,,,,,,
SARS-CoV-2 M^pro (Severe acute respiratory syndrome coronavirus 2),,,536.3 ± 156.6,2.39,0.133 ± 0.0279,248 ± 89.2,103.3 ± 18.5,0.426,0.0237 ± 0.0017,229 ± 44.2,197.9 ± 39.0,1.32,0.0733 ± 0.0077,370 ± 82.6
